The text below walks through data of article PMC3553970.

Substrate in the data set: N[C@@H](Cc1ccc(O)cc1)C(=O)O
Description: purified protein. Particulars: amino acid activation, ATP, no tRNA, 37°C, near-cognate amino acid.

B1: M. mobile PheRS (MmPheRS) (Mycoplasma mobile 163K) (protein)
chain: MKKNLTNLRIETLEDLKIAKSNFLNNDLELKQLMNDLKLASKEQKASIGQKINFYKQEIEQFFLTKKEEIEKKEVLKKIQDEFIDVFEEVNFSSSLHPLTLIENRFRTWFLNNGYYETEGSEITTDKINFELLNIPKDHPSRDMQDSLYLEKEQNGDQLLLRTHNTGFSIIELIKNKNKAFSAFSIGKVYRNDEDDNTHSHQFSQVDVIVAGKYNFPNLMWLLKSLLSYVFEEEVKIRLRPSYFPFTEPSCEVDVFYKNKWIEVLGSGIIHENVMKAAGYTNDMNALAWGIGIERIAMIKYGIDNIREFYKNDIRFLKQFNLEIEKLEV
Take B1: the Km (as a rule, the concentration of substrate that gives half-maximal velocity) was found to be 3.9 ± 0.54 mM; the kcat (commonly the number of substrate molecules converted per active site and unit of time at saturation) was determined as 8 s⁻¹; the kcat/Km (commonly the turnover number divided by the Michaelis constant) turned out to be 2100 M⁻¹ s⁻¹.
